Test results taken from publication PMC10519446.
Changes are numbered by the printed parent chain. Numbers in names are those of the source.

B1: NanK (N-acetylmannosamine kinase) (Escherichia coli K-12) (protein)
chain: MTTLAIDIGGTKLAAALIGADGQIRDRRELPTPASQTPEALRDALSALVSPLQAHAQRVAIASTGIIRDGSLLALNPHNLGGLLHFPLVKTLEQLTNLPTIAINDAQAAAWAEFQALDGDITDMVFITVSTGVGGGVVSGCKLLTGPGGLAGHIGHTLADPHGPVCGCGRTGCVEAIASGRGIAAAAQGELAGADAKTIFTRAGQGDEQAQQLIHRSARTLARLIADIKATTDCQCVVVGGSVGLAEGYLALVETYLAQEPAAFHVDLLAAHYRHDAGLLGAALLAQGEKL
B2: NanK (N-acetylmannosamine kinase) (Escherichia coli K-12; L84P) (protein)
chain: B1 chain with L84P
B3: NanK (N-acetylmannosamine kinase) (Escherichia coli K-12; L84R) (protein)
chain: B1 chain with L84R

substrate: Nc1ncnc2c1ncn2[C@@H]1O[C@H](COP(=O)(O)OP(=O)(O)OP(=O)(O)O)[C@@H](O)[C@H]1O; test: purified protein; conditions: co-substrate N-acetylmannosamine

How did the Km turn out when B1 was run?
The Km was “(1.4 ± 0.2)×10^−4 M”.

And the kcat?
Its kcat is 29 ± 0.5 s⁻¹.

For B2, which Km is on record?
Its Km is “(1.4 ± 0.3)×10^−4 M”.

What about the kcat of the same protein?
The kcat was 13 ± 0.2 s⁻¹.

How did the Km turn out when B3 was run?
The Km was “(8.3 ± 1.4)×10^−5 M”.

And the kcat?
Its kcat is 17 ± 0.3 s⁻¹.
